# Patent US20060057623
# Molecular target: HDAC1 (histone deacetylase 1), wild-type, Q13547
# Sequence (Q13547 whole entry): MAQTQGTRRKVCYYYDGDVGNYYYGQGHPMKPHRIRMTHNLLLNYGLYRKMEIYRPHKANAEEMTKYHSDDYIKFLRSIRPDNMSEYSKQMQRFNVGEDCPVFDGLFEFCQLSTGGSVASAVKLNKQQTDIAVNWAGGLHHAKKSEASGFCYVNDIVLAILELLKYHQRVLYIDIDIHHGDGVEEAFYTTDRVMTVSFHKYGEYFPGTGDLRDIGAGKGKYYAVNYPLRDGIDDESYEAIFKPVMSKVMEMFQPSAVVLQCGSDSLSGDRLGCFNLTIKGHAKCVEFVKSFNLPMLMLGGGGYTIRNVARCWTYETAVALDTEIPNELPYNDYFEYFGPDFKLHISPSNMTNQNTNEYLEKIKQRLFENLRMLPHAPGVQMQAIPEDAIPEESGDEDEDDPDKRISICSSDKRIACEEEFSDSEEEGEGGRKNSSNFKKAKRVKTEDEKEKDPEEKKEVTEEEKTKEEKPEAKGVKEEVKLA
protein,measurement,value
"SENP1 (Sentrin/SUMO-specific protease 1), wild-type (protein) MDDIADRMRMDAGEVTLVNHNSVFKTHLLPQTGFPEDQLSLSDQQILSSRQGHLDRSFTCSTRSAAYNPSYYSDNPSSDSFLGSGDLRTFGQSANGQWRNSTPSSSSSLQKSRNSRSLYLETRKTSSGLSNSFAGKSNHHCHVSAYEKSFPIKPVPSPSWSGSCRRSLLSPKKTQRRHVSTAEETVQEEEREIYRQLLQMVTGKQFTIAKPTTHFPLHLSRCLSSSKNTLKDSLFKNGNSCASQIIGSDTSSSGSASILTNQEQLSHSVYSLSSYTPDVAFGSKDSGTLHHPHHHHSVPHQPDNLAASNTQSEGSDSVILLKVKDSQTPTPSSTFFQAELWIKELTSVYDSRARERLRQIEEQKALALQLQNQRLQEREHSVHDSVELHLRVPLEKEIPVTVVQETQKKGHKLTDSEDEFPEITEEMEKEIKNVFRNGNQDEVLSEAFRLTITRKDIQTLNHLNWLNDEIINFYMNMLMERSKEKGLPSVHAFNTFFFTKLKTAGYQAVKRWTKKVDVFSVDILLVPIHLGVHWCLAVVDFRKKNITYYDSMGGINNEACRILLQYLKQESIDKKRKEFDTNGWQLFSKKSQEIPQQMNGSDCGMFACKYADCITKDRPINFTQQHMPYFRKRMVWEILHRKLL",deacetylase activity of HDAC1 precipitates,"In the presence of SENP1, the deacetylase activity of HDAC1 precipitates had a 70% reduction"
